The values below come from patent US20240383989A1 (PHARMABCINE, published 2024).

The target in experiment [1] is human KDR1 to 3 domain (human) (UniProt P35968). Put plainly: BLI (Octet), KDR1 to 3 domains on biosensor, scFv added, off-rate screening. (Biolayer interferometry detects binding as a change in optical thickness at a sensor tip.)
Experiment [2] has the same target. The experiment can be described thus: BLI (Octet), antibody on biosensor, human KDR1 to 3 as analyte.
Experiment [3] concerns the target T1, human KDR1 to 3 domain (human, UniProt P35968 20-327, limits assumed).
T1 construct: domain: KDR1 to 3 domain; The panning antigen was KDR1 to 3 domain-Fc; Treated as one molecule; also called KDR1 to 3 domains; KDR D1 to D3
The experiment can be described thus: BLI (Octet), KDR1 to 3 domains on biosensor, scFv added, off-rate screening.

Experiment [4] has as its target T1, human KDR1 to 3 domain. Put plainly: BLI (Octet), antibody on biosensor, human KDR1 to 3 as analyte. Here is the method: The binding of the selected antibodies to the KDR1 to 3 domain was measured using the Octet system (Fortebio Inc. US).

T1 sequence (P35968 20-327 limits assumed): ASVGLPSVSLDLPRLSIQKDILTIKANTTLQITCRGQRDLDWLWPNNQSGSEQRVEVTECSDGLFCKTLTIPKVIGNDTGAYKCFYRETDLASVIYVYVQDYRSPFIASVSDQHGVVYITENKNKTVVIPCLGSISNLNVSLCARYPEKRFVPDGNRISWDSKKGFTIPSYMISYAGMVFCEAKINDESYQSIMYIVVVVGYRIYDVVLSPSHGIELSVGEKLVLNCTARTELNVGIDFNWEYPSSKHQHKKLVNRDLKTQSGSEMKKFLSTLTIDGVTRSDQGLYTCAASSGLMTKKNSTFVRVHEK
Sequence of human KDR1 to 3 domain (human) (P35968 20-327 limits assumed): as above

B1: 6A6 (scFv) (scFv, from another filing, V domains shown)
VH: QMQLVQSGAEVKKPGASVKLSCKASGYTFSSYWMHWVRQAPGQRLEWMGEINPGNGHTNYNEKFKSRVTITVDKSASTAYMELSSLRSEDTAVYYCAKIWGPSLTSPFDYWGQGTLVTVSS
VL: SNFMLTQPPSVSVSPGKTARITCRGDNLGDVNVHWYQQRPGQAPVLVMYYDADRPSGIPERFSGSNSGNTATLTISGVEAGDEADYYCQVWDRTSEYVFGTGTKVTVLG
B1: the koff in experiment [1] worked out at 0.000266 s⁻¹.

B2: 6A6 (IgG) (antibody, from another filing, V domains shown)
VH: QMQLVQSGAEVKKPGASVKLSCKASGYTFSSYWMHWVRQAPGQRLEWMGEINPGNGHTNYNEKFKSRVTITVDKSASTAYMELSSLRSEDTAVYYCAKIWGPSLTSPFDYWGQGTLVTVSS
VL: SNFMLTQPPSVSVSPGKTARITCRGDNLGDVNVHWYQQRPGQAPVLVMYYDADRPSGIPERFSGSNSGNTATLTISGVEAGDEADYYCQVWDRTSEYVFGTGTKVTVLG
Take B2: in experiment [2], the Kd is 13.2 nM, the koff is 0.00168 s⁻¹ and the kon amounted to 127000 M⁻¹ s⁻¹.

B3: D4 (scFv) (scFv, part only; not given: scFv linker, domain order, tags, V domains shown, not shown: another chain or arm of the molecule; small tags and cut ends)
VH: EVQLVESGGGLVQPGGSLRLSCAASGYTFSSYWMSWVRQAPGKGLEWVSEINPGNGHTNYNEKFKSRFTISRDKSKNTLYLQMNSLRAEDTAVYYCARHWGPSLTSPFDYWGQGTLVTVSS
VL: DIQMTQSPSSLSASVGDRVTITCRADNLGDVNVHWYQQKPGKAPKLLIYYDADRPSGVPSRFSGSNSGNDATLTISSLQPEDFATYYCQAPTNNDPYTFGQGTKVEIK
B3 came in with a koff in the experiment with human KDR1 to 3 domain [3] of 0.000165 s⁻¹.

B4: D4 (IgG) (antibody, V domains shown)
VH: EVQLVESGGGLVQPGGSLRLSCAASGYTFSSYWMSWVRQAPGKGLEWVSEINPGNGHTNYNEKFKSRFTISRDKSKNTLYLQMNSLRAEDTAVYYCARHWGPSLTSPFDYWGQGTLVTVSS
VL: DIQMTQSPSSLSASVGDRVTITCRADNLGDVNVHWYQQKPGKAPKLLIYYDADRPSGVPSRFSGSNSGNDATLTISSLQPEDFATYYCQAPTNNDPYTFGQGTKVEIKR
notes: Converted to IgG with the pfusess-hchg1 (human IgG1) and pfuse2ss-hclk (human kappa) vectors
In the experiment with human KDR1 to 3 domain [4], B4 yielded an equilibrium dissociation constant (Kd) of 0.366 nM and a koff of 3.45e-05 s⁻¹.

B5: D3 (scFv) (scFv, part only; not given: scFv linker, domain order, tags, V domains shown, not shown: another chain or arm of the molecule; small tags and cut ends)
VH: EVQLVESGGGLVQPGGSLRLSCAASGYTFSSYWMSWVRQAPGKGLEWVSEINPGNGHTNYNEKFKSRFTISRDKSKNTLYLQMNSLRAEDTAVYYCARHWGPSLTSPFDYWGQGTLVTVSS
VL: DIQMTQSPSSLSASVGDRVTITCRADNLGDVNVHWYQQKPGKAPKLLIYYDADRPSGVPSRFSGSNSGNDATLTISSLQPEDFATYYCQAPTKNVPYTFGQGTKVEIK
The molecule B5 registered an off-rate (koff) with human KDR1 to 3 domain [3] of 0.00015 s⁻¹.

B6: LHL-G1 (scFv) (scFv, V domains shown)
VH: EVQLVESGGGLVQPGGSLRLSCAASGYTFSSYWMSWVRQAPGKGLEWVSEINPGNGHTNYNEKFKSRFTISRDKSKNTLYLQMNSLRAEDTAVYYCARSYRPSLTSPFDFWGQGTLVTVSS
VL: DIQMTQSPSSLSASVGDRVTITCRADNLGDVNVHWYQQKPGKAPKLLIYYDADRPSGVPSRFSGSNSGNDATLTISSLQPEDFATYYCQAPTTNEPYTFGQGTKVEIKR
Turning to B6, in the experiment with human KDR1 to 3 domain [3], the off-rate constant (koff) came out at 0.000239 s⁻¹.

B7: A5 (scFv) (scFv, part only; not given: scFv linker, domain order, tags, V domains shown, not shown: another chain or arm of the molecule; small tags and cut ends)
VH: EVQLVESGGGLVQPGGSLRLSCAASGYTFSSYWMSWVRQAPGKGLEWVSEINPGNGHTNYNEKFKSRFTISRDKSKNTLYLQMNSLRAEDTAVYYCARHWGPSLTSPFDYWGQGTLVTVSS
VL: DIQMTQSPSSLSASVGDRVTITCRADNLGDVNVHWYQQKPGKAPKLLIYYDADRPSGVPSRFSGSNSGNDATLTISSLQPEDFATYYCQAPTTHLPYTFGQGTKVEIK
B7 displayed a koff with human KDR1 to 3 domain [3] of 0.000187 s⁻¹.

B8: LH-E7 (scFv) (scFv, V domains shown)
VH: EVQLVESGGGLVQPGGSLRLSCAASGYTFSSYWMSWVRQAPGKGLEWVSEINPGNGHTNYNEKFKSRFTISRDKSKNTLYLQMNSLRAEDTAVYYCARHWGPSLTSPFDYWGQGTLVTVSS
VL: DIQMTQSPSSLSASVGDRVTITCRADNLGDVNVHWYQQKPGKAPKLLIYYDADRPSGVPSRFSGSNSGNDATLTISSLQPEDFATYYCQAPTRIAPYTFGQGTKVEIKR
Molecule B8 displayed a koff with human KDR1 to 3 domain [3] of 0.000111 s⁻¹.

B9: LH-E7 (IgG) (antibody, V domains shown)
VH: EVQLVESGGGLVQPGGSLRLSCAASGYTFSSYWMSWVRQAPGKGLEWVSEINPGNGHTNYNEKFKSRFTISRDKSKNTLYLQMNSLRAEDTAVYYCARHWGPSLTSPFDYWGQGTLVTVSS
VL: DIQMTQSPSSLSASVGDRVTITCRADNLGDVNVHWYQQKPGKAPKLLIYYDADRPSGVPSRFSGSNSGNDATLTISSLQPEDFATYYCQAPTRIAPYTFGQGTKVEIKR
notes: Converted to IgG; VH was cloned into Invivogen pfusess-hchg1 (human IgG1 heavy constant) and VL into pfuse2ss-hclk (human kappa constant); also called LH-67; LH-ET
In the experiment with human KDR1 to 3 domain [4], B9 yielded a Kd of 1.3 nM, an off-rate (koff) of 6.55e-05 s⁻¹ and a kon of 50600 M⁻¹ s⁻¹.

B10: LHL-G1 (IgG) (antibody, V domains shown)
VH: EVQLVESGGGLVQPGGSLRLSCAASGYTFSSYWMSWVRQAPGKGLEWVSEINPGNGHTNYNEKFKSRFTISRDKSKNTLYLQMNSLRAEDTAVYYCARSYRPSLTSPFDFWGQGTLVTVSS
VL: DIQMTQSPSSLSASVGDRVTITCRADNLGDVNVHWYQQKPGKAPKLLIYYDADRPSGVPSRFSGSNSGNDATLTISSLQPEDFATYYCQAPTTNEPYTFGQGTKVEIKR
notes: as for B4
As for B10, in the experiment with human KDR1 to 3 domain [4], the koff amounted to 0.000251 s⁻¹ and the kon was determined as 73700 M⁻¹ s⁻¹.

B11: A5 (IgG) (antibody, V domains shown)
VH: EVQLVESGGGLVQPGGSLRLSCAASGYTFSSYWMSWVRQAPGKGLEWVSEINPGNGHTNYNEKFKSRFTISRDKSKNTLYLQMNSLRAEDTAVYYCARHWGPSLTSPFDYWGQGTLVTVSS
VL: DIQMTQSPSSLSASVGDRVTITCRADNLGDVNVHWYQQKPGKAPKLLIYYDADRPSGVPSRFSGSNSGNDATLTISSLQPEDFATYYCQAPTTHLPYTFGQGTKVEIKR
notes: as for B4
B11: in the experiment with human KDR1 to 3 domain [4], the Kd is 0.886 nM and the koff was determined as 8.86e-05 s⁻¹.

B12: D3 (IgG) (antibody, V domains shown)
VH: EVQLVESGGGLVQPGGSLRLSCAASGYTFSSYWMSWVRQAPGKGLEWVSEINPGNGHTNYNEKFKSRFTISRDKSKNTLYLQMNSLRAEDTAVYYCARHWGPSLTSPFDYWGQGTLVTVSS
VL: DIQMTQSPSSLSASVGDRVTITCRADNLGDVNVHWYQQKPGKAPKLLIYYDADRPSGVPSRFSGSNSGNDATLTISSLQPEDFATYYCQAPTKNVPYTFGQGTKVEIKR
notes: as for B4
As to B12, in the experiment with human KDR1 to 3 domain [4], binding was put at a Kd of 0.773 nM, the koff stood at 8.67e-05 s⁻¹ and the kon was 112000 M⁻¹ s⁻¹.

As a reminder, the koff is the rate constant with which the complex falls apart. Higher therefore signals a short-lived complex. As usually defined, the Kd is the free concentration of one partner at which half of the binding sites on the other are occupied at equilibrium, for simple one-to-one binding. In general, kon refers to a measure of how fast the partners come together. Read a low kon as slow association.
